System: MS2 coat protein
Assay: apparent KD of MS2 coat protein; higher = weaker reporter binding
Settings: Eterna round: R107
How it was run: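 Apparent KD stands for the median, per design, of fits to normalised cluster binding curves. The curves came from titrating on-chip-transcribed RNA switches on Illumina sequencing clusters with SNAP-549-labelled MS2 coat protein, twofold from 0.7 or 1.5 nM to 3 µM. Buffer was 100 mM Tris-HCl pH 7.5, 80 mM KCl, 4 mM MgCl2, without or with constant ligand.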

[1] = input ligand: theophylline 20 uM
[2] = input ligand: theophylline 2 mM
[3] = input ligand: tryptophan 2.4 mM

Sequence | apparent KD of MS2 coat protein (input ligand: arginine 13.2 mM) [nM] | apparent KD of MS2 coat protein [1] [nM] | apparent KD of MS2 coat protein [2] [nM] | apparent KD of MS2 coat protein (input ligand: none) [nM] | apparent KD of MS2 coat protein [3] [nM]
AUGUACAUGACGGCCGCCACUACACUGAAAGUGGUCCAGAACAUGAGGAUCACCCAUGUAUCAAGUAGGACCGGGUCAUGUACAU [Tryp B Ex t5] | 178 | 425 | 697 |  | 
AUUAAGGAUAUGUAGACGGCGGAGAAGAGACGAGGACCGGUACGGCCGCCACUCGUGUUAGUUAACAUGAGGAUCACCCAUGUAA [#07 Tryptophan A Same State] | 51.3 | 56.1 | 69.6 |  | 
AUUCAUGGAAACAUGACAUACAUUACCGGUCGAGGACCGGUACGGCCGCCACUCGGUUGGUGGCACAUGAGGAUCACCCAUGUUA [SS Tryp A #11] | 25.2 | 44.2 | 30 |  | 
AUUCAUGGAAACAUGACAUAGGGAUCACUCCGAGGACCGGUACGGCCGCCACUCGCGAGGAGGCACAUGAGGAUCACCCAUGUUA [SS Tryp A #4] | 27 | 73.8 | 92.1 |  | 
AUUGACGUUGCGGCCGCCACUAGGCGUUCCCGGACAUGAGGAUCACCCAUGUGCUAGAGUGUAACUAGGACCGGGUAACCUCAGC [Verevean] | 124 | 290 | 260 | 103 | 176
AUUGUGAAGUCGGCCGCCACUGCAUAGUUUAACCACAUGUAACAUGAGGAUCACCCAUGUAAUGACAGGACCGGGACAAUAGUAA [JR_SSTryptoB_Sub023] | 22.2 | 41.9 | 29.9 |  | 
AUUGUGAAGUCGGCCGCCACUGCAUAGUUUAACCUCUUUUAACAUGAGGAUCACCCAUGUAAUGACAGGACCGGGACAAUAGUAA [JR_SSTryptoB_Sub022] | 54.3 | 92.3 | 79.7 |  | 
AUUUUUCUAUCAGAUACCAGACAACUCCAAACAUGAGGAUCACCCAUGUAUUGGGUGUUCGUCCCUUGGCAGCUGUUAAUGUUAA [JR_SSTheophyB_Sub003] | 24.6 | 18.1 |  |  | 16.9
CAAAAUAUCGGAAGGAGCGCGGGUAGGCGGGUUGGAUCACAUGAGGAUCACCCAUGUAAAUCGCAGGUAGGUCGCCGAUAACGCG [XArg-B27] | 52.9 | 60.4 | 37.9 | 19.9 | 30.1
CAAAGUUCGUCUCUGGUCCUCUAAUCGGCUCGAGGACCGGUACGGCCGCCACUCGCCCGACAUGAGGAUCACCCAUGUCUGUAAA [Dilaanis] | 15.5 | 23 | 16.8 |  | 
CAAGAAGUAACUGAUACCAGUGUACUGACAUGAGGAUCACCCAUGUUGGGUUUUGUUGUACACCCUUGGCAGCAGAAUCUUCUUG [AstrosExyTheB#22] | 46.9 | 74.8 |  |  | 58.1
CACAUGAGGAUCACCCAUGUCUGAACUGAAGGAGCGCUAAAUAAGGCAGGUAGGUCGCGGAAUCCCGGGUGCAUAUGCACCCGGG [9.aB] | 14.6 | 30.8 | 26.3 | 32 | 20.9
CACGAAAGAUCGGCCGCCACUAGCCUGUGUGUACUAGCACAUGAGGAUCACCCAUGUUCUUGCGUUAGGACCGGGAUUGAGCGUG [#05 Exclusion Tryptophan B] | 17.1 | 27.9 | 33.9 | 26.8 | 25.5
CAGAACAUGAGGAUCACCCAUGUUAGGGAUACCAGCUCAGACAUGGGCCCUUGGCAGCUCUAUGGCUGACGAAAGUCAGCAUCUG [#16 SameState-TheophyllineA] | 70.5 | 874 | 3.01 | 41.7 | 42.5
CAGGCUAGGACGGCCGCCACUGUGGCUACGGUACAUGAGGAUCACCCAUGUUUGUGGUUGAUCUACAGGACCGGGUCCUGACACG [Letisoonri] | 22.2 | 134 | 278 |  | 
CAGUCAGUCAGUCAAUGAGUGAGGCAUGAAGGAGCGUGGGAAACCACAGGUAGGUCGCAUGCGAAACAUGAGGAUCACCCAUGUU [SSArg A #3] | 29.4 | 42.5 | 51.9 | 47.9 | 26.3
CAUAUAUAUUGAAGGAGCGUCGAAAAUGGGUAAACAUGAGGAUCACCCAUGUAAAGGGAACGACAGGUAGGUCGCAAUAUAUAUG [AstromonsSSArgB#4] | 115 | 199 | 177 | 181 | 146
CAUGUUGUUGAAGAUACCAGAUUCUGAACGUUCACAUGAGGAUCACCCAUGUAAGUCCGAGUCCCUUGGCAGCUUAUACAGGUGG [Reatlala] | 43.9 | 50.8 |  |  | 47.7
CCCAGUUAGAUCAAAGGAAUUAUACUCGAAGGAGCGUCAUAGUAGGCAGGUAGGUCGCGAGACAUGAGGAUCACCCAUGUAGAGA [azqmullin] | 30.3 | 51.2 | 41 | 37.9 | 37.8

Sequence | apparent KD of MS2 coat protein (input ligand: arginine 13.2 mM) [nM] | apparent KD of MS2 coat protein [1] [nM] | apparent KD of MS2 coat protein [2] [nM] | apparent KD of MS2 coat protein (input ligand: none) [nM] | apparent KD of MS2 coat protein [3] [nM]
CCGAACAUGAGGAUCACCCAUGUUAGGGAUACCAGCCCAGACAUGGGCCCUUGGCAGCUCUAUAGCUGACGAAAGUCAGCAUCGG [#14 SameState-TheophyllineA] | 34.9 | 65.7 |  |  | 44.4
CCGACGAUGACCAAAGGUCAGGAGUGCGCACGAGGACCGGUACGGCCGCCACUCGAGGAGUGGGACAUGAGGAUCACCCAUGUAA [X-TryptA-ms2@65-1] | 23.9 | 29 | 20.6 | 22.4 | 21.8
CCGUUUUAUGGCGACAUAGGGCGGACUGAAGGAGCGGUAUAAUAGCCAGGUAGGUCGCAGAGAUCCACAUGAGGAUCACCCAUGU [!0.aB] | 73.9 | 51.5 | 42.9 | 34.3 | 34.3
CCUAUGCAGUCGGCCGCCACUGAGUCCUCAAUAAUAAAUUAUUAUACAUGAGGAUCACCCAUGUACAGGACCGGGACUGUAUAGG [Ex Tryptophan B 14] | 89 | 244 | 237 | 122 | 214
CCUGCUACGGGAAACCGUAGCAGGAAUGAUACCAGUAGGAAAGACUACCCUUGGCAGCAUGGGAAACAUGAGGAUCACCCAUGUU [SSThA NP+V+V2 #7 Same Structure] | 37.1 | 76.3 |  |  | 50.8
CGCAACCCACAUGAGGAUCACCCAUGUGAAGGAGCGGCGAAUAAGCCAGGUAGGUCGCGCAUGAAUAAAUCAUGUAGGAAGCUAA [XArg-A 8 V1] | 9.8 | 13.2 | 12.7 | 10.8 | 9.79
CGCGAGACGGCGGCCGCCACUUGUUGUUGGAAACUCGAGUUACAUGAGGAUCACCCAUGUCCUUAAAGGACCGGGCCGUAAGUAA [theeternabot_sameState_MS2_Trp_B_13] | 99.3 | 198 | 219 |  | 
CGCGCGACAUGAGGAUCACCCAUGUUCCCUCGAGGACCGGUACGGCCGCCACUCGAGGACAUGAGCAUCAGCCAUGUACCGGUCA [Default title] | 28.8 | 54.6 | 66.2 |  | 
CGCGUCCCGGACGAUACCAGAUAUGAGCGACACAUGAGGAUCACCCAUGUCAAUCAUGAGAUCCCUUGGCAGCGUUUGCACAACU [theeternabot_sameState_MS2_Theo_B_8] | 81.2 | 210 |  |  | 183
CGCUGGCCACAUGAGGAUCACCCAUGUGAAGGAGCGGCGAAUAAGCCAGGUAGGUCGCGCAUGAAUAAAUCAUGUAGGUUGCGAA [XArg-A 11 V2] | 16.9 | 14.9 | 17.9 | 13.4 | 14.5
CGGGAACGAUAUGAUACCAGCCUGCGAAAGAAUGCUUAGUACAUGAGGAUCACCCAUGUAGGCCCUUGGCAGCAUCGACUCAAGU [theeternabot_exclusion_MS2_Theo_B_4] | 13.1 | 18.1 |  |  | 13.2
CGGUACAUGAGGAUCACCCAUGUGUCGGAUACCAGAGAGCCGGCUCUCCCUUGGCAGCUGGUGCGACAUGAGGAUCACCCAUGUG [Exclusion Theophylline A GF19] | 29.4 | 58.5 | 67.4 | 61.6 | 53.3
CGGUGUAGGGUUAAUAGGCUGAGUACAGAAGGAGCGCGAAUAAACGCAGGUAGGUCGCUGGCGAACAUGAGGAUCACCCAUGUAU [Same State Arginine A GF 30] | 29.5 | 24 | 32 | 18.4 | 15.9
CGUAGUAUCAGACAUGAGGAUCACCCAUGUCGAGGACCGGUACGGCCGCCACUCGGCAGUUUGCGUCCUCAGGUACUCCAGGUAA [Larirexea] | 14.8 | 27.9 | 26.1 |  | 
CUACAUUUGUAGAAACCGGUCAACAUUAUUCGAGGACCGGUACGGCCGCCACUCGUAUAUUUUAAUACAUGAGGAUCACCCAUGU [Tryptophan A 6] | 12.3 | 14.2 | 13.6 |  | 
CUCAUCCACGCGGCCGCCACUAUAUUGUGGUGUGGGUGUGACGUAUUACAUGAGGAUCACCCAUGUAGGACCGGGCGUGGAUGAG [Stork] | 188 | 525 | 1100 | 408 | 534
CUCCCGUGGUCGGCCGCCACUGGAGGCCUCGCGCGACAUGAGGAUCACCCAUGUUGGCCCGGCGUCAGGACCGGGAUCGCGUGAG [#1 Same State - Tryptophan B Attempt #9 (HarryS)] | 11.8 | 10.3 | 12.1 | 11 | 10.8
CUCCCGUGGUCGGCCGCCACUGGAGGCCUUGCGCGACAUGAGGAUCACCCAUGUUGGCCCGGCGUCAGGACCGGGAUCGCGUGAG [#1 Same State - Tryptophan B Attempt #10 (HarryS)] | 8.86 | 18.8 | 12.2 | 14.4 | 10.1
CUGUACAUCUCGGCCGCCACUGCAACAUGUACACAUGGACAUGUACAUGAGGAUCACCCAUGUGGCAGGACCGGGAGGUGUGCAG [SSTryp B #28] | 99.8 | 211 | 309 |  | 
